Patent publication US20130280276A1 (Daiichi Sankyo, published 2013)

B1: MOR10110 (antibody, human IgG2, lambda, V domains shown)
VH: QVQLVESGGGLVQPGGSLRLSCAASGFTFTNYAMNWVRQAPGKGLEWVSYISYSSSNTYYADSVKGRFTISRDNSKNTLYLQMNSLRAEDTAVYYCARGAGLGYDVWGQGTLVTVSS
VL: DIELTQPPSVSVAPGQTARISCSGDNLRSKYVYWYQQKPGQAPVLVIYDTNDRPSGIPERFSGSNSGNTATLTISGTQAEDEADYYCQTYDMTSQDVFGGGTKLTVLG
B2: MOR09281 (antibody, human IgG2, lambda, V domains shown)
VH: QVQLVESGGGLVQPGGSLRLSCAASGFTFSNYWMSWVRQAPGKGLEWVSLISYSGSTTYYADSVKGRFTISRDNSKNTLYLQMNSLRAEDTAVYYCARDTPIGMDFWGQGTLVTVSS
VL: DIELTQPPSVSVAPGQIARISCSGDNLGSYYAYWYQQKPGQAPVLVIYGDNDRPSGIPERFSGSNSGNTATLTISGTQAEDEADYYCSSYDIVQPYVFGGGTKLTVLG
B3: MOR09892 (antibody, human IgG2, lambda, V domains shown)
VH: QVQLVESGGGLVQPGGSLRLSCAASGFTFSSYAMHWVRQAPGKGLEWVSYISYSGSNTYYADSVKGRFTISRDNSKNTLYLQMNSLRAEDTAVYYCARGWGGFDYWGQGTLVTVSS
VL: DIELTQPPSVSVAPGQTARISCSGDNLPNRYVHWYQQKPGQAPVLVIYDDNNRPSGIPERFSGSNSGNTATLTISGTQAEDEADYYCQSRDLHYSPVFGGGTKLTVLG
B4: MOR09898 (antibody, human IgG2, lambda, V domains shown)
VH: QVQLVESGGGLVQPGGSLRLSCAASGFTFSNYWMTWVRQAPGKGLEWVSFISYSGSTTYYADSVKGRFTISRDNSKNTLYLQMNSLRAEDTAVYYCAREGTSSMFDVWGQGTLVTVSS
VL: DIELTQPPSVSVAPGQTARISCSGDALRSYYASWYQQKPGQAPVLVIYDDNKRPSGIPERFSGSNSGNTATLTISGTQAEDEADYYCASFTYMSDFVFGGGTKLTVLG

molecular target: mouse Siglec-15 (mouse); assay: cell-based or functional assay

TRAP activity of mouse osteoclasts formed (RANKL-stimulated mouse bone marrow nonadherent cells) [ng/mL] | Binder
≥ 13 | B1
≥ 13 | B2
≥ 13 | B3
≥ 13 | B4
